Measurements from patent publication US6939949B2.

How the values were obtained:
UvrA [1] = experiment: BIACORE sensor chip (NTA), β domain immobilised, UvrA in solution, in the presence of ATP
UvrA [2] = experiment: BIACORE sensor chip (NTA), β domain immobilised, UvrA in solution, in the absence of ATP

Kd (UvrA [1]): 500 nM
Kd (UvrA [2]): 1300 nM
Substance: TRCF-β (β domain of Thermus thermophilus HB8 transcription-repair coupling factor), His-tagged
